Data taken from the supplement of paper PMC7877785.
± gives the uncertainty stated by the source.

Experiment: self-splicing fitness, log relative to wild type (ln ratio); higher = more splicing; Tetrahymena group I intron in knt gene, E. coli kanamycin selection, DiMSum; sequences stand for … in CUCUCU…GGAGGGAAAAGUUAUCAGGCAUGCACCUGGUAGCUAGUCUUUAAACCAAUAGAUUGCAUCGGUUUAAAAGGCAAGACCGUCAAAUUGCGGGAAAGGGGUCAACAGCCGUUCAGUACCAAGUCUCAGGGGAAACUUUGAGAUGGCCUUGCAAAGGGUAUGGUAAUAAGCUGACGGACAUGGUCCUAACCACGCAGCCAAGUCCUAAGUCAACAGAUCUUCUGUUGAUAUGGAUGCAGUUCACAGACUAAAUGUCGGUCGGGGAAGAUGUAUUCUUCUCAUAAGAUAUAGUCGGACCUCUCCUUAAUGGGAGCUAGCGGAUGAAGUGAUGCAACACUGGAGCCGCUGGGAACUAAUUUGUAUGCGAAAGUAUAUUGAUUAGUUUUGGAGUACUCGUGGUCG
Method in brief: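 Six replicate transformations of E. coli BL21(DE3) with a pET-22b(+) library were grown overnight at 37°C or 30°C. The library randomised all eight P1ex-region intron nucleotides, the intron lying in the knt kanamycin-resistance gene, and plates were LB agar with or without 25 μg/mL kanamycin plus 100 μg/mL carbenicillin, 50 μM IPTG and 0.2% rhamnose. Pooled colonies were amplicon-sequenced on an Illumina HiSeq 2500, and fitness is the DiMSum error-weighted combination of wild-type-normalised replicate fold changes, kanamycin versus none.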

Sequence | self-splicing fitness (ln) (30 °C) | self-splicing fitness (ln) (37 °C)
UUCUAGCAAUAUUACGUGCU | -3.37 ± 0.24 | -2.11 ± 0.24
UUCUAGCAAUAUUACGUUAA | -2.15 ± 0.23 | -1.32 ± 0.18
UUCUAGCAAUAUUACGUUAC | -2.41 ± 0.23 | -2.42 ± 0.29
UUCUAGCAAUAUUACGUUGC | -4.72 ± 0.39 | -2.64 ± 0.22
UUCUAGCAAUAUUACGUUUG | -3.49 ± 0.35 | -2.66 ± 0.4
UUGAAGCAAUAUUACGAACU | -1.61 ± 0.21 | 0.568 ± 0.2
UUGAAGCAAUAUUACGAAGU | -3.34 ± 0.19 | -1.69 ± 0.21
UUGAAGCAAUAUUACGACAU | 0.0991 ± 0.013 | 0.28 ± 0.033
UUGAAGCAAUAUUACGACGA | 0.302 ± 0.12 | 0.04 ± 0.14
UUGAAGCAAUAUUACGAGAC | -3.37 ± 0.17 | -2.5 ± 0.19
UUGAAGCAAUAUUACGAUCA | -0.786 ± 0.1 | 0.00258 ± 0.15
UUGAAGCAAUAUUACGAUCC |  | -1.38 ± 0.38
UUGAAGCAAUAUUACGAUGC | -4.76 ± 0.39 | -1.58 ± 0.24
UUGAAGCAAUAUUACGCAAC | -1.97 ± 0.25 | -2.43 ± 0.39
UUGAAGCAAUAUUACGCGUC | -3.32 ± 0.33 | -1.02 ± 0.33
UUGAAGCAAUAUUACGCUCA | -0.439 ± 0.12 | 1.17 ± 0.19
UUGAAGCAAUAUUACGGACA | 0.534 ± 0.1 | 0.655 ± 0.14
UUGAAGCAAUAUUACGGAGU | -2.51 ± 0.17 | -1.83 ± 0.18
UUGAAGCAAUAUUACGGGUU | -1.66 ± 0.093 | -1.66 ± 0.16
UUGAAGCAAUAUUACGGUAG | -0.0974 ± 0.088 | 0.0801 ± 0.12
UUGAAGCAAUAUUACGGUGG | -0.88 ± 0.059 | -0.498 ± 0.11
UUGAAGCAAUAUUACGGUUA | -0.344 ± 0.066 | 0.471 ± 0.086
UUGAAGCAAUAUUACGGUUU | -2.88 ± 0.11 | -2.69 ± 0.19
UUGAAGCAAUAUUACGUAAA | -1.42 ± 0.062 | -0.368 ± 0.081
UUGAAGCAAUAUUACGUAGC | -3.42 ± 0.28 | -2.53 ± 0.33

Sequence | self-splicing fitness (ln) (30 °C) | self-splicing fitness (ln) (37 °C)
UUGAAGCAAUAUUACGUCCA | 0.231 ± 0.094 | 0.472 ± 0.12
UUGAAGCAAUAUUACGUGAA | -1.92 ± 0.26 | -0.781 ± 0.22
UUGAAGCAAUAUUACGUUGG | -1.18 ± 0.089 | -0.305 ± 0.15
UUGCAGCAAUAUUACGAAGA | -2.37 ± 0.21 | -1.57 ± 0.18
UUGCAGCAAUAUUACGAAGG | -3.92 ± 0.28 | -1.53 ± 0.2
UUGCAGCAAUAUUACGAAUG | -1.98 ± 0.086 | -0.713 ± 0.1
UUGCAGCAAUAUUACGACAC | -1.37 ± 0.19 | -1.22 ± 0.47
UUGCAGCAAUAUUACGACAU | -0.522 ± 0.012 | 0.00633 ± 0.032
UUGCAGCAAUAUUACGAGAA |  | -1.47 ± 0.34
UUGCAGCAAUAUUACGAGCC |  | -2.7 ± 0.31
UUGCAGCAAUAUUACGAUCG | -1.13 ± 0.1 | -0.473 ± 0.14
UUGCAGCAAUAUUACGAUGG | -0.811 ± 0.14 | -1.07 ± 0.19
UUGCAGCAAUAUUACGAUUG | -1.62 ± 0.32 | -0.337 ± 0.21
UUGCAGCAAUAUUACGGAAC | -2.24 ± 0.32 | 
UUGCAGCAAUAUUACGGAGA | -1.85 ± 0.12 | -1.08 ± 0.096
UUGCAGCAAUAUUACGGAUA | -1.92 ± 0.15 | -1.12 ± 0.17
UUGCAGCAAUAUUACGGGCU | -1.6 ± 0.16 | -1.17 ± 0.22
UUGCAGCAAUAUUACGGGUG | -1.7 ± 0.081 | -1.59 ± 0.13
UUGCAGCAAUAUUACGGGUU | -3.77 ± 0.25 | -2.15 ± 0.21
UUGCAGCAAUAUUACGGUCU | -2.05 ± 0.092 | -1.26 ± 0.092
UUGCAGCAAUAUUACGUAUA | -1.32 ± 0.12 | -1.01 ± 0.12
UUGCAGCAAUAUUACGUGCC | -2.11 ± 0.14 | -1.18 ± 0.15
UUGCAGCAAUAUUACGUGGG | -3.24 ± 0.12 | -2.8 ± 0.17
UUGCAGCAAUAUUACGUUAC | -2.77 ± 0.15 | -2.18 ± 0.17
